Patent US20250332297A1, “DLL3-SPECIFIC BINDING CONSTRUCTS AND THEIR USE IN RADIOTHERAPY” (MOLECULAR PARTNERS AG, priority 2024, published 2025)

Columns and labels:
[1] = Thermal stability by Circular Dichroism (CD) spectroscopy; assay type: physicochemical; conditions: CD at 222 nm, 20° C. to 90° C., 2 μM in PBS pH7.4; DARPins with C-terminal Cysteine-containing tag (SEQ ID NOs: 15, 16, 18)
Method: Labelling of proteins conjugated to a chelator with a radionuclide may require harsh conditions, including high temperatures. The thermal stability and the propensity to unfold/refold of 2D DARPins MAM279, MAM283 and MAM282 were assessed using Circular Dichroism (CD) spectroscopy.
Samples of the DARPins were diluted to 2 μM in PBS, pH7.4. The assessment was done using a Jasco J-815 spectrophotometer. The Tm (melting temperature) of the selected proteins was determined by CD as a parameter for thermal stability. In brief, the ellipticity was recorded at […] and a temperature range from 20° C. to 90° C. was applied followed by reverse scan to record the refolding behavior. The Tm of the selected ankyrin repeat protein constructs is the midpoint of the protein unfolding. Spectra from 190-250 nm were recorded before and after the temperature scan.

hDLL3-MC38 tumor model = assay: Biodistribution of radio-labelled DARPin conjugates in hDLL3-MC38 tumor model; assay type: in vivo, mouse; conditions: Pb-212 DOTAM conjugate 0.01 mg/kg (10 μCi) i.v., s.c. hDLL3-MC38
From the text: hDLL3-MC38 tumor model. ATH mice were purchased from Envigo. General handling and maintenance of mice was done as described above for the NCI-H82 tumor model. hDLL3-MC38 cells were purchased from Biocytogen (Catalog No. 311448). […] Cells were quantified using Countess cell counter.
Biodistribution study. […] Based on immunohistochemistry analyses, the hDLL3-MC38 tumors have a higher level of human DLL3 expression than the NCI-H82 tumors described in Example 3 (data not shown). Biodistribution was monitored at 1 h, 4 h and 24h post-injection. Mice were euthanized by CO2 inhalation and cervical dislocation.
Mice were euthanized by CO2 inhalation and cervical dislocation.

NCI-H82 tumor model = assay: Biodistribution of radio-labelled DARPin conjugates in NCI-H82 tumor model; conditions: for Blood % ID/g / Kidneys % ID/g / Tumors % ID/g: mouse, in vivo, iv, 0.01 mg/kg; for T:K ratio: R2G2 mice
Method: NCI-H82 tumor model. R2G2 mice were purchased from Envigo. All studies were conducted under the approval of the institutional IACUC committee. Animals were maintained under specific-pathogen-free (SPF) conditions with daily cycles of light and darkness (12 h/12 h), in line with ethical guidelines. No manipulations were performed during the first 5 days after arrival, to allow the animals to acclimatize to the new environment. All mice were monitored daily for assessment of physical condition and general well-being. NCI-H82 cells were purchased from ATCC (Catalog No. HTB-175). Solid xenografts were established by subcutaneous (SQ) injection of NCI-H82 cells in RPMI media mixed 1:1 with Corning® Matrigel® basement membrane matrix (GFR; Corning, Cat No 354230.). Cells were quantified using Countess cell counter. Each mouse was injected SQ with 5×10^6 NCI-H82 cells in 100 μL RPMI/GFR-Matrigel into the right flank of each mouse. Tumor volumes were estimated three times per week through calipering, according to the formula: volume=0.5×length×width^2 and grown until they reached 200-300 mm^3. Tumor-associated antigen level expressed in tumors, tumor vascularization profile and DLL3 soluble form in mouse serum was tested.
Biodistribution study. […] Radio-labeled (Pb-212) DARPin conjugates were then injected at 0.01 mg/kg (10 μCi DARPin conjugates) into the tail vein of R2G2 mice (females) xenografted subcutaneously (at age of about 7 weeks) with NCI-H82 cells (5 million cells, growth factor reduced Matrigel) and bearing tumors (5-10 mm in diameter). […] Biodistribution was monitored at 4 h and 24h post-injection. Mice were euthanized by CO2 inhalation and cervical dislocation. Blood, spleen, kidneys, liver and tumor were extracted, weighed and the radioactivity was determined with a γ-counter counter (such as Wizard^22470, Perkin Elmer). The data were expressed as the % injected dose/gram (% ID/g).
Radio-labeled (Pb-212) DARPin conjugates were then injected at 0.01 mg/kg (10 μCi DARPin conjugates) into the tail vein of R2G2 mice (females) xenografted subcutaneously (at age of about 7 weeks) with NCI-H82 cells (5 million cells, growth factor reduced Matrigel) and bearing tumors (5-10 mm in diameter). Biodistribution was monitored at 4 h and 24h post-injection. Mice were euthanized by CO2 inhalation and cervical dislocation. Kidneys and tumor were extracted, weighed and the radioactivity was determined with a γ-counter counter (such as Wizard^22470, Perkin Elmer). The data were expressed as the % injected dose/gram (% ID/g) and the tumor to kidney (T:K) ratio was determined.
Radio-labelled (Pb-212) DARPin conjugates were then injected at 0.01 mg/kg (10 μCi DARPin conjugates) (i) into the tail vein of R2G2 mice (females) xenografted subcutaneously (at age of about 7 weeks) with NCI-H82 cells (5 million cells, growth factor reduced Matrigel) and bearing tumors (5-10 mm in diameter), and (ii) into the tail vein of athymic nude mice (females) xenografted subcutaneously (at age of about 7 weeks) with hDLL3-MC38 cells (5 million cells, growth factor reduced Matrigel) and bearing tumors (5-10 mm in diameter). Biodistribution was monitored at 4 h and 24h post-injection. Mice were euthanized by CO2 inhalation and cervical dislocation. Blood, bladder, small intestine, colon, spleen, kidneys, liver, lung, heart, tail and tumor were extracted, weighed and the radioactivity was determined with a γ-counter (such as Wizard^22470, Perkin Elmer). The data were expressed as the % injected dose/gram (% ID/g).

[2] = athymic nude mice, 4 h, Example 7
[3] = athymic nude mice, 24 h, Example 7
[4] = athymic nude mice, 4 h, Example 8
[5] = athymic nude mice, 24 h, Example 8

B1: MAM283: Two domain (2D) ankyrin repeat protein: serum albumin-specific domain (SEQ ID NO: 7), PT linker, DLL3-specific domain (SEQ ID NO: 3) (protein)
chain: DLGKKLLEAARAGQDDEVRELLKAGADVNAKDYFSHTPLHLAARNGHLKIVEVLLKAGADVNAKDFAGKTPLHLAADAGHLEIVEVLLKAGADVNAQDIFGKTPADIAADAGHEDIAEVLQKAAGSPTPTPTTPTPTPTTPTPTPTGSDLGKKLLAAAADGQDDEVRELLQAGADVNAKDLFGYTPLHLAAWRGHLEIVEVLLEAGADVNAKDAAGETPLHLAAWFGHLEIVEVLLEAGADVNAQDVQGKTPADLAAKEGHEDIAEVLQQAA
modifications: Ankyrin repeat protein (MAM283)
melting temperature (Tm) [1]: about 82 °C | Blood % ID/g (hDLL3-MC38 tumor model; [2]): 21.1 % ID/g | Kidneys % ID/g (hDLL3-MC38 tumor model; [2]): 16.9 % ID/g | Tumors % ID/g (hDLL3-MC38 tumor model; [2]): 22.5 % ID/g | Blood % ID/g (hDLL3-MC38 tumor model; [3]): 0.8 % ID/g | Kidneys % ID/g (hDLL3-MC38 tumor model; [3]): 26.8 % ID/g | Tumors % ID/g (hDLL3-MC38 tumor model; [3]): 45.5 % ID/g

B2: MAM160: Two domain (2D) ankyrin repeat protein: serum albumin-specific domain (SEQ ID NO: 7), PT linker, DLL3-specific domain MAM120 (protein)
chain: DLGKKLLEAARAGQDDEVRELLKAGADVNAKDYFSHTPLHLAARNGHLKIVEVLLKAGADVNAKDFAGKTPLHLAADAGHLEIVEVLLKAGADVNAQDIFGKTPADIAADAGHEDIAEVLQKAAGSPTPTPTTPTPTPTTPTPTPTGSDLGTKLLSAAADGQDDEVRELLQAGADVNAKDLFGYTPLHLAAWRGHLEIVEVLLEAGADVNAKDAAGLTPLHLAAWFGHLEIVEVLLEAGADVNAQDVQGVTPADLAAKEGHEDIAEVLQQAA
modifications: Ankyrin repeat protein (MAM160)
Blood % ID/g (hDLL3-MC38 tumor model; athymic mice, 1 h, Example 4): 38 % ID/g | Kidneys % ID/g (hDLL3-MC38 tumor model; athymic mice, 1 h, Example 4): 12 % ID/g | T:K ratio (hDLL3-MC38 tumor model; athymic mice, 1 h, Example 4): 0.58 | Tumors % ID/g (hDLL3-MC38 tumor model; athymic mice, 1 h, Example 4): 7 % ID/g | Blood % ID/g (hDLL3-MC38 tumor model; athymic mice, 4 h, Example 4): 25 % ID/g | Kidneys % ID/g (hDLL3-MC38 tumor model; athymic mice, 4 h, Example 4): 12 % ID/g | T:K ratio (hDLL3-MC38 tumor model; athymic mice, 4 h, Example 4): 1.42 | Tumors % ID/g (hDLL3-MC38 tumor model; athymic mice, 4 h, Example 4): 17 % ID/g | Blood % ID/g (hDLL3-MC38 tumor model; athymic mice, 24 h, Example 4): 3 % ID/g | Kidneys % ID/g (hDLL3-MC38 tumor model; athymic mice, 24 h, Example 4): 17 % ID/g | T:K ratio (hDLL3-MC38 tumor model; athymic mice, 24 h, Example 4): 1.53 | Tumors % ID/g (hDLL3-MC38 tumor model; athymic mice, 24 h, Example 4): 26 % ID/g | Blood % ID/g (hDLL3-MC38 tumor model; [2]): 17.9 % ID/g | Kidneys % ID/g (hDLL3-MC38 tumor model; [2]): 11.6 % ID/g | Tumors % ID/g (hDLL3-MC38 tumor model; [2]): 18.8 % ID/g | Blood % ID/g (hDLL3-MC38 tumor model; [3]): 1.9 % ID/g | Kidneys % ID/g (hDLL3-MC38 tumor model; [3]): 18 % ID/g | Tumors % ID/g (hDLL3-MC38 tumor model; [3]): 28.9 % ID/g | Blood % ID/g (NCI-H82 tumor model; 4 h): 13.8 % ID/g | Kidneys % ID/g (NCI-H82 tumor model; 4 h): 12.4 % ID/g | Tumors % ID/g (NCI-H82 tumor model; 4 h): 7.1 % ID/g | Blood % ID/g (NCI-H82 tumor model; 24 h): 3.2 % ID/g | Kidneys % ID/g (NCI-H82 tumor model; 24 h): 18.7 % ID/g | Tumors % ID/g (NCI-H82 tumor model; 24 h): 13.3 % ID/g

B3: MAM279 conjugate: SEQ ID NO: 15 conjugated to DOTAM-maleimide, labelled with Pb-212 (natural lead in PK studies) (conjugate)
chain: GSDLGKKLLEAARAGQDDEVRELLKAGADVNAKDYFSHTPLHLAARNGHLKIVEVLLKAGADVNAKDFAGKTPLHLAADAGHLEIVEVLLKAGADVNAQDIFGKTPADIAADAGHEDIAEVLQKAAGSPTPTPTTPTPTPTTPTPTPTGSDLGKKLLAAAAQGQDDEVRELLKAGANVNAKDLFGYTPLHLAAWRGHLEIVEVLLKAGADVNAKDAAGETPLHLAAWFGHLEIVEVLLKAGADVNAQDLQGKTPADLAAKEGHEDIAEVLQKAAGSGSC
modifications: DOTAM-maleimide, Pb-212 label; Ankyrin repeat protein with tag (GS-MAM279-tag)
T:K ratio (hDLL3-MC38 tumor model; athymic nude mice, 24 h, Example 9): above 1 | T:K ratio (NCI-H82 tumor model; Pb-212 DOTAM conjugate 0.01 mg/kg (10 μCi) i.v., s.c. NCI-H82, 24 h, Example 9): above 1 | T:K ratio (NCI-H82 tumor model; Pb-212 conjugate, NCI-H82 cells xenografted intravenously instead of subcutaneously, 24 h (data not shown)): above 1

B4: MAM282: Two domain (2D) ankyrin repeat protein: serum albumin-specific domain (SEQ ID NO: 7), PT linker, DLL3-specific domain (SEQ ID NO: 2) (protein)
chain: DLGKKLLEAARAGQDDEVRELLKAGADVNAKDYFSHTPLHLAARNGHLKIVEVLLKAGADVNAKDFAGKTPLHLAADAGHLEIVEVLLKAGADVNAQDIFGKTPADIAADAGHEDIAEVLQKAAGSPTPTPTTPTPTPTTPTPTPTGSDLGKKLLAAAREGQDDEVRELLKAGADVNAKDIWGQTPLHIAAWFGHLEIVEVLLKAGADVNAKDQTGHTPLHLAAKFGHLEIVEVLLKAGADVNAQDLLGRTPADLAAEEGHEDIAEVLQKAA
modifications: Ankyrin repeat protein (MAM282)
melting temperature (Tm) [1]: above 90 °C | Blood % ID/g (hDLL3-MC38 tumor model; [4]): 28.6 % ID/g | Kidneys % ID/g (hDLL3-MC38 tumor model; [4]): 19.4 % ID/g | Tumors % ID/g (hDLL3-MC38 tumor model; [4]): 21.4 % ID/g | Blood % ID/g (hDLL3-MC38 tumor model; [5]): 9.9 % ID/g | Kidneys % ID/g (hDLL3-MC38 tumor model; [5]): 27.9 % ID/g | Tumors % ID/g (hDLL3-MC38 tumor model; [5]): 51.9 % ID/g
